For assay [1], the target named is human IL-8 type A receptor (IL8R-A), encoded by clone pRK5B.il8r1.1 (human). The experiment in a line: competition of 125I-IL-8 by unlabelled IL-8 on COS cells transfected with pRK5B.il8r1.1, Scatchard analysis.
A further assay concerns the target human neutrophils. The experiment in a line: competition of 125I-IL-8 by unlabelled IL-8 on human neutrophils, Scatchard analysis.

For one substance, Kd results are on record in patent publication US5922541.

What is called Kd is a measure of binding affinity in units of concentration. The low end stands for tighter binding, the high end for weaker binding.

On to “recombinant human IL-8 (72 amino acid form, made in E. coli) (from UniProt P10145) (ligand)”, for which the Kd came to 3.6 nM in assay [1] and 1.1 nM with human neutrophils.
